Experiment [1] addresses T1, human Y4 receptor (human, UniProt P50391 1-375). Nature of the experiment: 125I-PP displacement.
Experiment [2] has as its target T1, human Y4 receptor. Description: 125I-PP displacement. The source holds these as a separate data set.

Broadly, the IC50 is the concentration needed to halve the response being measured.

Where two headings read alike, the source gives them in different places.

T1 sequence (P50391 whole entry): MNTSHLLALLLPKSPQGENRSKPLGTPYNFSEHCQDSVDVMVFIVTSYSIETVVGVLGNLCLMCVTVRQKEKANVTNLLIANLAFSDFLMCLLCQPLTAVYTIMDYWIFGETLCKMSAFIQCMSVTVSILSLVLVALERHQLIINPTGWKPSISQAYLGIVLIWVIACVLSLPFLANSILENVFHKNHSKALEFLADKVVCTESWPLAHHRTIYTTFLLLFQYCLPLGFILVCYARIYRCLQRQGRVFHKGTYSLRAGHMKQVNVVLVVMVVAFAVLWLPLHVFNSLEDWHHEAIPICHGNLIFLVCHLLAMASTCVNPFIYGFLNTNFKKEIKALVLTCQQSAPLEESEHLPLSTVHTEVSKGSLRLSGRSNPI

Regarding PLEPKYPGDNATPEELAKYAAELRRYINKLTRPRY [4058687], the IC50 in experiment [1] was found to be 96 pM.
In turn, PLEPKYPGDNATPEQMAKYAAELRRYINKLTRPRY [4058158] registered an IC50 in experiment [2] of 47 pM.
The same measure, in the same setting: under PLEPSYPGDNATPEQMAKYAAELRRYINKLTRPRY [4058146] stands 46 pM; under PLEPKYPGDNATPEQLAKYAAELRRYINKLTRPRY [4058165], 63 pM.
Molecule PLEPEYPGDNATPEQMAKYAAELRRYINLLTRPRY [4058154] yielded an IC50 in experiment [2] of 105 pM.
In experiment [1], PLEPHYPGDNATPEELAKYAAELRRYINKLTRPRY [4058702] showed an IC50 of 86 pM.
On to PLEPKYPGDDATPEELAHYYSELRRYINKLTRPRY [4058706], for which the 50% inhibitory concentration (IC50) in experiment [1] came to 84 pM.
For HAPLEPKYPGDDATPEELAHYYSELRRYINKLTRPRY [4058710], in experiment [1], the half-maximal inhibitory concentration (IC50) was found to be 129 pM.
On to AAPLEPKYPGDDATPEELAHYYSELRRYINKLTRPRY [4058708], for which, in experiment [1], the IC50 amounted to 79 pM.
In experiment [1], PAPLEPKYPGDDATPEELAHYYSELRRYINKLTRPRY [4058709] came in with an IC50 of 83 pM.
In experiment [2], AAPLEPVYPGDNATPEQMARYYSELRRYINKLTRPRY [4058280] returned an IC50 of 42 pM.
APLEPEYPGDDATPQEMARYAAELRRYINKLTRPRY [4058680] registered an IC50 in experiment [1] of 69 pM.
Same read-out and setting: under PAPLEPTYPGDNATPEELARYAAALRRYINKLTRPRY [4058738] stands 55 pM.
HAPLEPTYPGDNATPEQMARYAAALRRYINKLTRPRY [4058069] came in with an IC50 in experiment [2] of 70 pM.
The same measure, in the same setting: under PAPLEPTYPGDNATPEQMARYAAALRRYINKLTRPRY [4058070] stands 30 pM; under PLEPVYPGDNATPEQLARYYSELRRYINKLTRPRY [4058296], 53 pM.

B1: 4058071 (protein)
chain: CAPLEPTYPGDNATPEQMARYAAALRRYINKLTRPRYCAPLEPTYPGDNATPEQMARYAAALRRYINKLTRPRY
In turn, B1 showed an IC50 in experiment [2] of 143 pM.
For the molecule APLEPKYPGDNATPEELAKYAAELRRYINKLTRPRY [4058688], in experiment [1], the IC50 amounted to 89 pM.
Molecule APLEPSYPGDNATPEQMAKYAAELRRYINKLTRPRY [4058147] had an IC50 in experiment [2] of 57 pM.
APLEPHYPGDNATPEELAKYAAELRRYINKLTRPRY [4058703] showed an IC50 in experiment [1] of 59 pM.
Molecule AAPLEPHYPGDNATPEEMAKYAAELRRYINKLTRPRY [4058697] came in with an IC50 in experiment [1] of 95 pM.
In experiment [2], PAPLEPKYPGDNATPEQMAKYAAELRRYINLLTRPRY [4058169] had an IC50 of 99 pM.
Consider AAPLEPEYPGDNATPEEMAKYAAELRRYINKLTRPRY [4058076], for which the IC50 in experiment [2] turned out to be 48 pM.
In the case of AAPLEPTYPGDNATPEQMARYAAALRRYINKLTRPRY [4058068], in experiment [2], the IC50 was found to be 26 pM.
Molecule YAPLEPKYPGDNATPEQMAKYAAELRRYINKLTRPRY [4058164] showed an IC50 in experiment [2] of 58 pM.
Turning to GAPLEPKYPGDNATPEELAKYAAELRRYINKLTRPRY [4058691], in experiment [1], the IC50 amounted to 98 pM.
For AAPLEPVYPGDNATPEEMARYYSELRRYINKLTRPRY [4058295], the IC50 in experiment [2] amounted to 59 pM.
Same read-out and setting: under GAPLEPKYPGDNATPEQLAKYAAELRRYINKLTRPRY [4058167] stands 60 pM; under GAPLEPEYPGDNATPEEMAKYAAELRRYINKLTRPRY [4058073], 131 pM.
In experiment [1], YAPLEPKYPGDNATPEELAKYAAELRRYINKLTRPRY [4058693] gave an IC50 of 77 pM.
Molecule PAPLEPHYPGDNATPEELAKYAAELRRYINKLTRPRY [4058678] had an IC50 in experiment [1] of 90 pM.
For AKPLEPKYPGDNATPEELAKYAAELRRYINKLTRPRY [4058690], in experiment [1], the IC50 is 71 pM.
Same read-out and setting: under HAPLEPHYPGDNATPEEMAKYAAELRRYINKLTRPRY [4058699] stands 92 pM; under GAPLEPHYPGDNATPEEMAKYAAELRRYINKLTRPRY [4058698], 72 pM.
Take PAPLEPKYPGDNASPEQMAKYAAELRRYINKLTRPRY [4058669]: in experiment [1], the IC50 turned out to be 43 pM.
Regarding HAPLEPKYPGDNATPEELAKYAAELRRYINKLTRPRY [4058692], the IC50 in experiment [1] was 131 pM.
Regarding AAPLEPHYPGDNATPEELAKYAAELRRYINKLTRPRY [4058704], the IC50 in experiment [1] was determined as 94 pM.
In experiment [2], HAPLEPEYPGDNATPEEMAKYAAELRRYINKLTRPRY [4058074] had an IC50 of 116 pM.
In experiment [1], PLEPEYPGDDATPQEMARYAAELRRYINKLTRPRY [4058679] registered an IC50 of 78 pM.
In experiment [1], PLEPEYPGDNATPEEMARYAAELRRYINKLTRPRY [4058674] had a half-maximal inhibitory concentration (IC50) of 82 pM.
Take PLEPEYPGDNATPEEMAKYAADLRRYINKLTRPRY [4058675]: in experiment [1], the IC50 came to 95 pM.
Take PLEPEYPGDNATPEEMAKYAAALRRYINKLTRPRY [4058676]: the IC50 in experiment [1] came to 61 pM.
In experiment [1], PLEPEYPGDDATPEEMAKYAAELRRYINKLTRPRY [4058673] showed an IC50 of 91 pM.
Take PLEPEYPGDNATPEEMAKYAAELRRYINKLTRPRY [4058072]: in experiment [2], the IC50 amounted to 51 pM.
In experiment [1], PAPLEPKYPGDDATPQEMARYAAELRRYINKLTRPRY [4058686] registered an IC50 of 76 pM.
Molecule PAPLEPEYPGDNATPEEMAKYAAELRRYINKLTRPRY [4058077] yielded an IC50 in experiment [2] of 59 pM.
AAPLEPEYPGDDATPQEMARYAAELRRYINKLTRPRY [4058683] yielded an IC50 in experiment [1] of 81 pM.
Still for that read-out and setting: the value for AKPLEPEYPGDDATPQEMARYAAELRRYINKLTRPRY [4058685] was 90 pM; that for PAPLEPKYPGDDATPQQMAKYAAELRRYINKLTRPRY [4058670] was 80 pM.
Regarding PAPLEPEYPGDDATPQEMARYAAELRRYINKLTRPRY [4058681], the 50% inhibitory concentration (IC50) in experiment [1] amounted to 87 pM.
With PAPLEPHYPGDDATPEEMAKYAAELRRYINKLTRPRY [4058701], in experiment [1], the IC50 came out at 99 pM.
The same measure, in the same setting: the value for GAPLEPEYPGDDATPQEMARYAAELRRYINKLTRPRY [4058682] was 76 pM; that for PAPLEPHYPGDDATPEELAKYAAELRRYINKLTRPRY [4058705] was 97 pM.
Still for that read-out and setting: the value for YAPLEPEYPGDDATPQEMARYAAELRRYINKLTRPRY [4058684] was 87 pM.
In experiment [2], AAPLEPSYPGDDATPQQMAHYYSELRRYINLLTRPRY [4058082] gave an IC50 of 110 pM.

The values above are taken from patent publication US20100279930A1 (published 2010).
